The test addresses HA of A/Vietnam/1203/04 on pseudotyped virus (H5-VN04 pseudovirus) (influenza A virus A/Vietnam/1203/04 …). Kind of test: cell-based or functional assay.

B1: 3I14 VLD94N IgG1 (antibody, V domains shown)
VH: QVQLLESGGGVVQPGRSLRLSCAASGFTFSNYGMHWVRQAPGKGLEWVAIISFDGSKKYYANSVKGRSTISRDNSKNTLSLQMNSLGPEDTALYYCAKLPSPYYFDSRFVWVAASAFHFWGQGILVTVSS
VL: NFMLTQPPSASGTPGQRVTISCSGSSSNIGGNTVHWFQQLPGTAPKLLIYTNSLRPSGVPDRFSGSKSGTSASLAISGLQSEDEADYYCAAWDNSLNGQVFGGGTKLTVL
Consider B1, for which the “IC50, neutralization of H5-VN04 pseudovirus” value is 8.65 ng/mL.

(Values after patent publication US12076390 (Dana-Farber, dated 2024).)
